Laboratory results as given in paper PMC4259358, “Functional Characterization of Nuclear Localization and Export Signals in Hepatitis C Virus Proteins and Their Role in the Membranous Web” (PLoS ONE, 2014).

T1: recombinant IPO5 (importin β3/kap β3) (UniProt O00410-1 1-1097)
T1 sequence (looked up): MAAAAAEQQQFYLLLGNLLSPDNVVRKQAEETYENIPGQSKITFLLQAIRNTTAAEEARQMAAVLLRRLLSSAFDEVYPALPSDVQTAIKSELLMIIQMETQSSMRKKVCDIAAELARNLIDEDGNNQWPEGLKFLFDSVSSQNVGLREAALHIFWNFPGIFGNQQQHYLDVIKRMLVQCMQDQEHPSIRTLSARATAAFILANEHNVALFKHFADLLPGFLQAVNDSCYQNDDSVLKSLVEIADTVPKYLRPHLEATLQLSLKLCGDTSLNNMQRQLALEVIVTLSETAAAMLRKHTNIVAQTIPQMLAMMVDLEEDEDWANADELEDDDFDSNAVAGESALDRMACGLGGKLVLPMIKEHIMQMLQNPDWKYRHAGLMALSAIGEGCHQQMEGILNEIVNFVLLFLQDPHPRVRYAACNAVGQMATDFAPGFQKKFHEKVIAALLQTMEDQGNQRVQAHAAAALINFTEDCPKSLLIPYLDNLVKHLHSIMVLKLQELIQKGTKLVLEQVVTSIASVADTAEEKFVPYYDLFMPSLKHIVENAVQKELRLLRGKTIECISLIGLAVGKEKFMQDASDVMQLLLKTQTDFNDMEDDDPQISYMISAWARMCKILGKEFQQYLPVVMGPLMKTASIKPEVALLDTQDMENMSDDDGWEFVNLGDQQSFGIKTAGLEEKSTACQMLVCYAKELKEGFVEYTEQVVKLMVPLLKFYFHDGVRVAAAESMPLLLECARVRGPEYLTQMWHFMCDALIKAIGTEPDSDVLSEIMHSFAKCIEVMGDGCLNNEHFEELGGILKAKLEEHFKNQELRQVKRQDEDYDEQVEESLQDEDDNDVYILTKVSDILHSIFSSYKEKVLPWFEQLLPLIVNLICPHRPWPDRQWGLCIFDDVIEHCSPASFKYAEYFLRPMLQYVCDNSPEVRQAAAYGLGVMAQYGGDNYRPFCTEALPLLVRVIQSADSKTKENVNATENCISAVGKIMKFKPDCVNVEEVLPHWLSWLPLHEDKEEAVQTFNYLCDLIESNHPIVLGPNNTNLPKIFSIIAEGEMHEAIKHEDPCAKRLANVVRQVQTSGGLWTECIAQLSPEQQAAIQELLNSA


What was measured:
Conditions in all cases: both partners purified
[1] = molecular target: T1, recombinant IPO5 (importin β3/kap β3); assay: ELISA; plates coated with synthetic peptide (10 µg/ml, carbonate buffer pH 9.6); increasing concentrations of recombinant NTF, 2 h, room temperature; anti-HIS detection; apparent Kd
[2] = molecular target: T2, recombinant IPOA5 (importin α5/kap α1) (UniProt P52294 1-538); assay: as above
[3] = molecular target: T2, recombinant IPOA5 (importin α5/kap α1); assay: as above; remark: listed apart in the source
[4] = molecular target: T3, recombinant XPO1 (exportin 1/CRM1) (UniProt O14980 1-1071); assay: as above
[5] = molecular target: T1, recombinant IPO5 (importin β3/kap β3); assay: ELISA; plates coated with recombinant HCV protein (10 µg/ml, carbonate buffer pH 9.6); recombinant NTF added, 2 h, room temperature; anti-NTF antibodies; apparent Kd
[6] = molecular target: T3, recombinant XPO1 (exportin 1/CRM1); assay: as above
[7] = molecular target: T2, recombinant IPOA5 (importin α5/kap α1); assay: as above

T2 sequence (P52294 whole entry): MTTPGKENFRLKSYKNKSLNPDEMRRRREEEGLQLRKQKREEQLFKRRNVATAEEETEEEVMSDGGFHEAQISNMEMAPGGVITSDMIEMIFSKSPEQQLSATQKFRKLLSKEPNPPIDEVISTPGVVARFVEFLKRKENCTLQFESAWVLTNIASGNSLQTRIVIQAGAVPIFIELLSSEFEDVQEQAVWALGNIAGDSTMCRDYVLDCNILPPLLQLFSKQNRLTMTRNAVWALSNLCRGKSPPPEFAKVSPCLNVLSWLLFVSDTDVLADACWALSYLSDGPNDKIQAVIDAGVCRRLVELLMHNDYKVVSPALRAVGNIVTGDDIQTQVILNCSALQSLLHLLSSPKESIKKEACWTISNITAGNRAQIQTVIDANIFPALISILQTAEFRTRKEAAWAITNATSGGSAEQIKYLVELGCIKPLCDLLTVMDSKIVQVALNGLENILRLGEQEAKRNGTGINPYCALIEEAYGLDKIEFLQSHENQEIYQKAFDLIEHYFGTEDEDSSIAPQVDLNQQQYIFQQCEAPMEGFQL
T3 sequence (O14980 whole entry): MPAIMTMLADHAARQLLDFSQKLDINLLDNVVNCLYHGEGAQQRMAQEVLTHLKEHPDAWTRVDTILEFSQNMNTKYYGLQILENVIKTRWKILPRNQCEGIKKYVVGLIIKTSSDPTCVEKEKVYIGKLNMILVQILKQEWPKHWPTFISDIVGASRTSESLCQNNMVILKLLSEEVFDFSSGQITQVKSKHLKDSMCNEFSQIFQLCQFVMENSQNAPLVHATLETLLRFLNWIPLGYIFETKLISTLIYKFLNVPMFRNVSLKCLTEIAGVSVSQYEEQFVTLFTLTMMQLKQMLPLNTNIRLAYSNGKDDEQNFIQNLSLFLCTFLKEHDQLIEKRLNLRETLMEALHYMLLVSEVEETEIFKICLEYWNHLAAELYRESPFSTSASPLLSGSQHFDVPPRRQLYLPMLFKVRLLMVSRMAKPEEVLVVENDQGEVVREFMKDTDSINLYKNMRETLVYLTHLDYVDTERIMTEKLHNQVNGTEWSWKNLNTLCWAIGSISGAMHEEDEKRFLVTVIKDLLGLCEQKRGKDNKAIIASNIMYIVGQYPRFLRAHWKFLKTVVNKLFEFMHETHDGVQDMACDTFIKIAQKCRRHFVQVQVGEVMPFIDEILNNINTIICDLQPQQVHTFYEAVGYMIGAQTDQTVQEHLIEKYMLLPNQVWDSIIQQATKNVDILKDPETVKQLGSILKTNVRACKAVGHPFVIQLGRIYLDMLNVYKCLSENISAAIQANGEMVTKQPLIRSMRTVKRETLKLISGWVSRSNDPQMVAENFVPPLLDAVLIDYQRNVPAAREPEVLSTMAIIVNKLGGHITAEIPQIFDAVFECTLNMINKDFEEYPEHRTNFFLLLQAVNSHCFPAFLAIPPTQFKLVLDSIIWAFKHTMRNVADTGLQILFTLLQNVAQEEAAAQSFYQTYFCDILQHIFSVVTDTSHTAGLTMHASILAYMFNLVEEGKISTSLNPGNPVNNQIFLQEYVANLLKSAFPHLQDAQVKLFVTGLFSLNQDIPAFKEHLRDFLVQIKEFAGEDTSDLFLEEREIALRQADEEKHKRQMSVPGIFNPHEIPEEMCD

Binder | Kd [1] [µM] | Kd [2] [µM] | Kd [4] [µM] | other results
PKPQRKTKRNTNRRPRQIKIWFQNRRMKWKK (source: synthetic peptide (GL Biochem, HPLC >85%)) [Core NLS 1 synthetic peptide (fused to penetratin)] | 0.0348 ± 0.00454 | 0.161 ± 0.0318 | – | –
PRRGPRLGVRRQIKIWFQNRRMKWKK (source: synthetic peptide (GL Biochem, HPLC >85%)) [Core NLS 2 synthetic peptide (fused to penetratin)] | 0.0788 ± 0.00642 | 0.0249 ± 0.00171 | – | –
PRGRRQPIPKDRRSTGKAWGKPRQIKIWFQNRRMKWKK (source: synthetic peptide (GL Biochem, HPLC >85%)) [Core NLS 3 synthetic peptide (fused to penetratin)] | 0.0404 ± 0.00706 | 0.0175 ± 0.00081 | – | –
PIIFSPMEKKVIVWGRQIKIWFQNRRMKWKK (source: synthetic peptide (GL Biochem, HPLC >85%)) [NS2 NLS synthetic peptide (fused to penetratin)] | – | 0.0793 ± 0.00389 | – | Kd [3]: ~0.034 µM
KVIDTLTCGFADLMGRQIKIWFQNRRMKWKK (source: synthetic peptide (GL Biochem, HPLC >85%)) [Core NES 1 synthetic peptide (fused to penetratin)] | – | – | 0.0667 ± 0.0113 | –
LPGCSFSIFLLALLSCITVPVSARQIKIWFQNRRMKWKK (source: synthetic peptide (GL Biochem, HPLC >85%)) [Core NES 2 synthetic peptide (fused to penetratin)] | – | – | 0.0952 ± 0.0266 | –
LILLTLSPHYKLFLARLIWWLQYFITRQIKIWFQNRRMKWKK (source: synthetic peptide (GL Biochem, HPLC >85%)) [NS2 NES synthetic peptide (fused to penetratin)] | – | – | 0.0798 ± 0.0256 | –
LQLPPLERLTLRQIKIWFQNRRMKWKK (source: synthetic peptide (GL Biochem, HPLC >85%)) [HIV-1 Rev NES synthetic peptide (fused to penetratin)] | – | – | 0.114 ± 0.0715 | –
recombinant full-length HCV core protein (natural protein) STNPKPQRKTKRNTNRRPEDVKFPGGGQIVGGVYLLPRRGPRLGVRTTRKTSERSQPRGRRQPIPKDRRSTGKAWGKPGRPWPLYGNEGLGWAGWLLSPRGSRPSWGPTDPRHRSRNVGKVIDTLTCGFADLMGYIPVVGAPLSGAARAVAHGVRVLEDGVNYATGNLPGFPFSIFLLALLSCITVPVSA | – | – | – | Kd [5]: 0.056 ± 0.00278 µM; Kd [6]: 0.0231 ± 0.00407 µM; Kd [7]: 0.0368 ± 0.00483 µM
